The target of the test is F1024-1-3 antibody (monoclonal antibody produced by hybridoma F1024-1-3, Accession No. FERM BP-7511). The test is described as follows: competition ELISA: 4-fold diluted serum mixed with 1 µg/mL peroxidase-labeled F1024-1-3, added to immobilised human CD14(1-356).

The source of these data is US20040091478A1.

B1: rabbit soluble type CD14 (in New Zealand white rabbit serum) (receptor, UniProt Q28680 18-342, looked up)
chain: STDTPEPCELDDDDIRCVCNFSDPQPDWSSALQCMPAVQVEMWGGGHSLEQFLRQADLYTDQRRYADVVKALRVRRLTVGAVQVPAPLLLGVLRVLGYSRLKELALEDIEVTGTAPPPPPLEATGPALSTLSLRNVSWPKGGAWLSELQQWLKPGLQVLNIAQAHTLAFSCEQVRTFSALTTLDLSENPGLGERGLVAALCPHKFPALQDLALRNAGMKTLQGVCAALAEAGVQPHHLDLSHNSLRADTQRCIWPSALNSLNLSFTGLQQVPKGLPAKLNVLDLSCNKLNRAPQPGELPKVVNLSLDGNPFLVPGASKLQEDLTN
Turning to B1, the inhibition ratio of binding of F1024-1-3 antibody to human CD14 was found to be 52%.

B2: rhesus monkey soluble type CD14 (in serum) (receptor)
chain: TTPEPCELDDEDFRCVCNFSEPHPDWSEAFQCVSAVEVEIRVGGLSLEPFLTRVDPDADPRQYADTIKALRVRRLTVGAAQVPAQLLVGALRVLAYSRLQELTLEDLEITGTMPPLPLEATGLALSSLRLHNVSWATGRSWLAELQQWLKPGLKVLSIAQAHSPAFSCEQVRAFPALTSLDLSDNPGLGERGLIAALCPHKFPALQNLALRNTGMETPTGVCAALAAAGVQPHSLDLSHNSLRATANPSAPRCMWSSALNSLNLSFAGLEQVPKGLPAKLRVLDLSCNRLNRRPRPDELPQVDNLALDGNPFLVPGTALPQEGSMN
Turning to B2, the inhibition ratio of binding of F1024-1-3 antibody to human CD14 amounted to 44%.

B3: crab-eating macaque soluble type CD14 (in serum) (receptor)
chain: TTPEPCELDDEDFRCVCNFSEPHPDWSEAFQCVSAVEVEIRVGGLSLEPFLTRVDPDADPRQYADTIKALRVRRLTVGAAQVPAQLLVGALRVLAYSRLQELTLEDLEITGTMPPLPLEATGLALSSLRLHNVSWATGRSWLAELQQWLKPGLKVLSIAQAHSPAFSCEQVRAFPALTSLDLSDNPGLGERGLIAALCPHKFPALQNLALRNTGMETPTGVCAALAAAGVQPHSLDLSHNSLRATANPSAPRCMWSSALNSLNLSFAGLEQVPKGLPAKLRVLDLSCNRLNRRPRPDELPQVDNLALDGNPFLVPGTALPQEGSMN
On to B3, for which the inhibition ratio of binding of F1024-1-3 antibody to human CD14 was determined as 57%.

B4: soluble type CD14 purified from human serum (receptor)
chain: TTPEPCELDDEDFRCVCNFSEPQPDWSEAFQCVSAVEVEIHAGGLNLEPFLKRVDADADPRQYADTVKALRVRRLTVGAAQVPAQLLVGALRVLAYSRLKELTLEDLKITGTMPPLPLEATGLALSSLRLRNVSWATGRSWLAELQQWLKPGLKVLSIAQAHSPAFSCEQVRAFPALTSLDLSDNPGLGERGLMAALCPHKFPAIQNLALRNTGIETPTGVCAALAAAGVQPHSLDLSHNSLRATVNPSAPRCMWSSALNSLNLSFAGLEQVPKGLPAKLRVLDLSCNRLNRAPQPDELPEVDNLTLDGNPFLVPGTALPHEGSMNSGVVPACARSTLSVGVSGTLVL
B4: the inhibition ratio of binding of F1024-1-3 antibody to human CD14 worked out at 83%.
